Data taken from US9120851B2, “Human antibodies to human angiopoietin-like protein 4” (Regeneron Pharmaceuticals, Inc., priority 2009, dated 2015).
Each block holds one molecule with its values, some of them ahead of it.

Experiments:
hANGPTL4(26-148)-mFc [1] = target: T1, hANGPTL4(26-148)-mFc (Homo sapiens, UniProt Q9BY76); experiment: BIACORE, full mAb or Fab over anti-mFc captured hANGPTL4(26-148)-mFc; assay type: binding
T1 construct: amino acid residues 26-148 of human ANGPTL4 fused in-line to mouse IgG2a (hANGPTL4-mFc)
Experimental: (§1) Briefly, various concentrations (3.125 nM-100 nM) of anti-hANGPTL4 antibodies (i.e., H1H268 Fab, entire H1H268 mAb, H1H284 Fab, and entire H1H284 mAb) were injected over a low density anti-mFc captured hANGPTL4(26-148)-mFc (˜68±4 RU) surface, or the surface of amino-coupled hANGPTL4(26-406)-His (R&D Systems) (450 RU) or amino-coupled cynomolgus monkey N-terminal region (amino acid residues 1-130 of SEQ ID NO:490) expressed with an C-terminal hexa-histidine tag (MfANGPTL4(1-130)-His) (1,028 RU). Kinetic analysis was performed to measure ka and kd, and KD values and half-life of antigen/antibody complex dissociation were calculated. The results are shown in Table 4 (H1H268P) and Table 5 (H1H284P).

hANGPTL4(26-406)-His = target: T2, hANGPTL4(26-406)-His (Homo sapiens, UniProt Q9BY76); experiment: BIACORE, full mAb or Fab over amino-coupled hANGPTL4(26-406)-His; assay type: binding; settings: for RU bound at 50 nM mAb or Fab: amino-coupled 450 RU
T2 construct: purchased R&D Systems
T2 sequence (Q9BY76 26-406): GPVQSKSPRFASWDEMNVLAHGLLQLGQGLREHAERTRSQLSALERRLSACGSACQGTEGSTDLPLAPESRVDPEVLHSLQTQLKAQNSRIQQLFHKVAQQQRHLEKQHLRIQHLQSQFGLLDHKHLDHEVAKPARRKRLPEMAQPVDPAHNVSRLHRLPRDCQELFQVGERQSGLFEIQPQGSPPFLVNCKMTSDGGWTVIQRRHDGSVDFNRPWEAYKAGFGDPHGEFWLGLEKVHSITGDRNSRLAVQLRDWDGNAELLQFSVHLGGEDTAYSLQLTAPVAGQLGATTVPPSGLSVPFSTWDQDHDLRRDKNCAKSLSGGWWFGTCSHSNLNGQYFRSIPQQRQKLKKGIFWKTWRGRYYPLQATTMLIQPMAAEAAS
Experimental: as §1

MfANGPTL4(1-130)-His = experiment: BIACORE, full mAb or Fab over amino-coupled MfANGPTL4(1-130)-His; assay type: binding, cynomolgus monkey; settings: for Response bound at 50 nM mAb or Fab: amino-coupled 1,028 RU
Experimental: as §1

hANGPTL4(26-148)-mFc [2] = target: T1, hANGPTL4(26-148)-mFc; experiment: BIACORE, full mAb or Fab over anti-mFc captured hANGPTL4(26-148)-mFc; assay type: binding; remark: listed apart in the source
C57BL/6 mice = experiment: In vivo effect of hANGPTL4-mFc on plasma lipid levels; parameters: species or system mouse
Experimental: hANGPTL4 was administered intravenously to C57BL/6 mice to determine the biological effect of hANGPTL4 on plasma lipid levels. Briefly, C57BL/6 mice were put into four groups of five animals and each group was administered with different amount of hANGPTL4-mFc protein (SEQ ID NO:480): 25 μg, 50 μg, 100 μg and 300 μg, per mouse. A control group received injections of PBS. hANGPTL4-mFc protein and PBS were administered by intravenous injection (i.v.) via tail vein. Mice were bled at 15 min, 30 min, 60 min and 120 min after delivery of hANGPTL4-mFc or PBS and plasma lipid levels were determined by ADVIA® 1650 Chemistry System (Siemens). Measurements of triglycerides, total cholesterol, low density lipoprotein (LDL), nonesterified fatty acids (NEFA-C) and high density lipoprotein (HDL) were determined for each dose group. […] Thus, the 25 μg dose of hANGPTL4-mFc was selected as a possible minimum dosage for analysis of inhibition of ANGPTL4-induced increase in serum triglyceride levels by selected anti-hANGPTL4 antibodies as described below.

[3] = pH 5.75, 25° C., antigen captured 27 ± 0.6 RU
[4] = pH 7.2, 25° C., antigen captured 35 ± 1.9 RU

Chain of MfANGPTL4(1-130)-His (as listed by the source): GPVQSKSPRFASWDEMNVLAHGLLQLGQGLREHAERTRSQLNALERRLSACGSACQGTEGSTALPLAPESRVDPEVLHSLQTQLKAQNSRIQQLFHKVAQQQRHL

ka (hANGPTL4(26-148)-mFc [1]; pH 5.75, 25° C.): 174000 M⁻¹ s⁻¹ | kd (hANGPTL4(26-148)-mFc [1]; pH 5.75, 25° C.): 0.00304 s⁻¹ | ka (hANGPTL4(26-148)-mFc [1]; pH 7.2, 25° C.): 300000 M⁻¹ s⁻¹ | kd (hANGPTL4(26-148)-mFc [1]; pH 7.2, 25° C.): 0.000601 s⁻¹ | ka (hANGPTL4(26-406)-His; pH 5.75, 25° C.): 444000 M⁻¹ s⁻¹ | kd (hANGPTL4(26-406)-His; pH 5.75, 25° C.): 0.00657 s⁻¹ | RU bound at 50 nM mAb or Fab (hANGPTL4(26-406)-His; pH 5.75, 25° C.): 10 | ka (hANGPTL4(26-406)-His; pH 7.2, 25° C.): 726000 M⁻¹ s⁻¹ | kd (hANGPTL4(26-406)-His; pH 7.2, 25° C.): 0.0118 s⁻¹ | RU bound at 50 nM mAb or Fab (hANGPTL4(26-406)-His; pH 7.2, 25° C.): 13 | kd (MfANGPTL4(1-130)-His; pH 5.75, 25° C.): 0.00432 s⁻¹ | kd (MfANGPTL4(1-130)-His; pH 7.2, 25° C.): 0.00171 s⁻¹ | Response bound at 50 nM mAb or Fab (RU) (hANGPTL4(26-148)-mFc [2]; [3]): 20 | Response bound at 50 nM mAb or Fab (RU) (hANGPTL4(26-148)-mFc [2]; [4]): 10
B1: H1H268P Fab: Fab fragment of H1H268P prepared by papain digestion (antibody, V domains shown)
VH: QVQLQESGAGLLKPSETLSLTCTVYGGSFSIHHWTWIRHPPGKGLEWIGEINHRGSTNYNPSLKSRVTISIDTSKNQFSLKLSAVTAADTAVYYCARGLRFLDWLSSYFDYWGQGTLVTVSS
VL: DIQMTQSPSSLSASVGDRVTITCRASQGISDYLAWYQQKPGKVPNLLIYAASALQSGVPSRFSGSGSGTDFTLTISSLQPEDVATYYCQNYNTAPLTFGGGTKVEIK
ka (MfANGPTL4(1-130)-His; pH 5.75, 25° C.): 312000 M⁻¹ s⁻¹ | Response bound at 50 nM mAb or Fab (MfANGPTL4(1-130)-His; pH 5.75, 25° C.): 178 | ka (MfANGPTL4(1-130)-His; pH 7.2, 25° C.): 267000 M⁻¹ s⁻¹ | Response bound at 50 nM mAb or Fab (MfANGPTL4(1-130)-His; pH 7.2, 25° C.): 167

B2: hANGPTL4(26-148)-mFc: amino acid residues 26-148 of human ANGPTL4 fused in-line to mouse IgG2a (SEQ ID NO:480) (protein)
chain: GPVQSKSPRFASWDEMNVLAHGLLQLGQGLREHAERTRSQLSALERRLSACGSACQGTEGSTDLPLAPESRVDPEVLHSLQTQLKAQNSRIQQLFHKVAQQQRHLEKQHLRIQHLQSQFGLLDPGSLEFALERNSGEPRGPTIKPCPPCKCPAPNLLGGPSVFIFPPKIKDVLMISLSPIVTCVVVDVSEDDPDVQISWFVNNVEVHTAQTQTHREDYNSTLRVVSALPIQHQDWMSGKEFKCKVNNKDLPAPIERTISKPKGSVRAPQVYVLPPPEEEMTKKQVTLTCMVTDFMPEDIYVEWTNNGKTELNYKNTEPVLDSDGSYFMYSKLRVEKKNWVERNSYSCSVVHEGLHNHHTTKSFSRTPGK
increase of circulating triglycerides as compared to control mice (PBS) (C57BL/6 mice; 25 μg/mouse i.v., 30 minutes post injection): greater than two-fold | total cholesterol, LDL, NEFA-C and HDL across dose groups (C57BL/6 mice; 25, 50, 100, 300 μg per mouse i.v., each time point post-injection): not significantly different

ka (hANGPTL4(26-148)-mFc [1]; pH 5.75, 25° C.): 472000 M⁻¹ s⁻¹ | kd (hANGPTL4(26-148)-mFc [1]; pH 5.75, 25° C.): 0.0016 s⁻¹ | ka (hANGPTL4(26-148)-mFc [1]; pH 7.2, 25° C.): 245000 M⁻¹ s⁻¹ | kd (hANGPTL4(26-148)-mFc [1]; pH 7.2, 25° C.): 0.000202 s⁻¹ | ka (hANGPTL4(26-406)-His; pH 5.75, 25° C.): 1.21e+06 M⁻¹ s⁻¹ | kd (hANGPTL4(26-406)-His; pH 5.75, 25° C.): 0.00173 s⁻¹ | RU bound at 50 nM mAb or Fab (hANGPTL4(26-406)-His; pH 5.75, 25° C.): 33 | ka (hANGPTL4(26-406)-His; pH 7.2, 25° C.): 1.11e+06 M⁻¹ s⁻¹ | kd (hANGPTL4(26-406)-His; pH 7.2, 25° C.): 0.000344 s⁻¹ | RU bound at 50 nM mAb or Fab (hANGPTL4(26-406)-His; pH 7.2, 25° C.): 32 | kd (MfANGPTL4(1-130)-His; pH 5.75, 25° C.): 0.00619 s⁻¹ | kd (MfANGPTL4(1-130)-His; pH 7.2, 25° C.): 0.00313 s⁻¹ | Response bound at 50 nM mAb or Fab (RU) (hANGPTL4(26-148)-mFc [2]; [3]): 56 | Response bound at 50 nM mAb or Fab (RU) (hANGPTL4(26-148)-mFc [2]; [4]): 29
B3: H1H284P Fab: Fab fragment of H1H284P prepared by papain digestion (antibody, V domains shown)
VH: QVQLVESGGGVVQPGRSLRLSCAASGFTFSSYGMHWVRQAPGKGLEWMAVISFDGGNKNNADSVKGRFTISRDNSKNTLYLQMNSLRAEDTAVYYCAKEGDRSGHPYFYYYGLDVWGQGTTVTVS
VL: DIQLTQSPSFLSASVGDRVTITCWASQGISSYLAWYQQKPGKAPKLLIYAASTLQSGVPSRFSGSGSETEFTLTISSLQPEDFATYYCQQLHSYPLTFGGGTKVEIK
ka (MfANGPTL4(1-130)-His; pH 5.75, 25° C.): 724000 M⁻¹ s⁻¹ | Response bound at 50 nM mAb or Fab (MfANGPTL4(1-130)-His; pH 5.75, 25° C.): 255 | ka (MfANGPTL4(1-130)-His; pH 7.2, 25° C.): 310000 M⁻¹ s⁻¹ | Response bound at 50 nM mAb or Fab (MfANGPTL4(1-130)-His; pH 7.2, 25° C.): 214
